Results taken from patent US20110306125A1, “Protein Expression Methods” (Ironwood Pharmaceuticals, Inc., priority 2008, published 2011).

Biological target: T1, GC-C receptor (Homo sapiens, UniProt P25092)
T1 construct: production of intracellular cGMP using cultured human colon carcinoma T84 cells; endogenous in cells; host or cells: T84 human colon carcinoma cells
Experiment: production of intracellular cGMP in cultured human colon carcinoma T84 cells (cGMP ELISA)
Assay type: cell-based
Details: intracellular cGMP by ELISA kit, compared with synthetic human uroguanylin, FIG. 8
Method: The ability of polypeptides, variant polypeptides and other compounds to bind to and activate the intestinal GC-C receptor can be tested using the T84 human colon carcinoma cell line (American Type Culture Collection (Bethesda, Md.).
Briefly, cells are grown to confluency in 24-well culture plates with a 1:1 mixture of Ham's F12 medium and Dulbecco's modified Eagle's medium (DMEM), supplemented with 5% fetal calf serum and are used at between passages 54 and 60.
Monolayers of T84 cells in 24-well plates are washed twice with 1 ml/well DMEM, then incubated at 37° C. for 10 min with 0.45 ml DMEM containing 1 mM isobutylmethylxanthine (IBMX), a cyclic nucleotide phosphodiesterase inhibitor. Test polypeptides (50Tl) are then added and incubated for 30 minutes at 37° C. The media is aspirated and the reaction is terminated by the addition of ice cold 0.5 ml of 0.1N HCl. […] Cyclic GMP is measured by EIA according to procedures outlined in the Cayman Chemical Cyclic GMP EIA kit.
The activity of the mature peptide was evaluated by the production of intracellular cGMP using cultured human colon carcinoma T84 cells, as described by Currie et al. (Pro. Natl. Acad. Sci. USA., 89:947-951, 1992). cGMP levels were subsequently measured using a cGMP ELISA kit (Cayman Chemical, Ann Arbor, Mich.) according to the manufacturer's protocol. […]

T1 sequence (P25092 24-1073): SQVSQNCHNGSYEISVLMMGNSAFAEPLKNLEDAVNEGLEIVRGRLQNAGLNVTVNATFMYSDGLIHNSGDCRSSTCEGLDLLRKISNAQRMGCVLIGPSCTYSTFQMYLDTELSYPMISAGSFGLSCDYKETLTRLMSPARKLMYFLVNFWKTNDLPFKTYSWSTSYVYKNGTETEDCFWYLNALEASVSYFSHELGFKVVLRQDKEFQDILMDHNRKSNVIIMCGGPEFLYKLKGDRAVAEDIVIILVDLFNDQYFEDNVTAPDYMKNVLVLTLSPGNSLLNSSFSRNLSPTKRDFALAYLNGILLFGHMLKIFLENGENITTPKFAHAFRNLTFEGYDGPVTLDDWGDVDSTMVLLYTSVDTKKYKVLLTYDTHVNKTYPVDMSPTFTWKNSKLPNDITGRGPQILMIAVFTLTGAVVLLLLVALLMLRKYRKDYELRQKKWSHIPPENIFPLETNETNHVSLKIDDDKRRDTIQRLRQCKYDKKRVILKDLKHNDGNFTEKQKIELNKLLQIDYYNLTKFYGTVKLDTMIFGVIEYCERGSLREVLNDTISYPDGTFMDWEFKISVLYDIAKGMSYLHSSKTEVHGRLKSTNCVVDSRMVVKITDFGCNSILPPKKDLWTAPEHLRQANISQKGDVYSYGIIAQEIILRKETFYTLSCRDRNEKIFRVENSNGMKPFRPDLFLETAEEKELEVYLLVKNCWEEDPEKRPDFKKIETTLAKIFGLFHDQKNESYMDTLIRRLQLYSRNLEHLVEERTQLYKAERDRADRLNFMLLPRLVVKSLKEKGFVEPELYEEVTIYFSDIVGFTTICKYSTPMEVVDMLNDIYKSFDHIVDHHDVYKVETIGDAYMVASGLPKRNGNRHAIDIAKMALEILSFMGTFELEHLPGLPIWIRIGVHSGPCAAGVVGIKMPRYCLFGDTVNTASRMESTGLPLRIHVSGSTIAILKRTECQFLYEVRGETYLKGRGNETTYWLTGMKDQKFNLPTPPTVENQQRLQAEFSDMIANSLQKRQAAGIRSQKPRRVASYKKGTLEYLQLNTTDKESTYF

NDDCELCVNVACTGCL [mature UGN peptide]
cGMP levels produced: comparable to those levels produced using synthetic human UGN
